B1: fully human anti-ADAM10 monoclonal antibody 1H5 (IgG) (antibody, V domains shown)
VH: QVQLVESGGGLVKPGGSLRLSCAASGFTFSDYYMSWIRQAPGKGLEWVSYISSSGSTIYYADSVKGRFTISRDNAKNSLYLQMNSLRAEDTAVYYCARDFYDSKIFDYWGQGTLVTVSS
VL: DIQMTQSPSSLSASVGDRVTITCRASQSISSYLNWYQQKPGKAPKLLIYAASSLQSGVPSRFSGSGSGTDFTLTISSLQPEDVGVYYCMEGLKTPFTFGPGTKLEIK
B2: murine anti-ADAM10 monoclonal antibody 8C7 (IgG) (antibody, V domains shown)
VH: QVQLEESGAELARPGSSVKLSCKASGYTFTNYWLQWVKQRTGQGLEWIGAIYPRDGDAKYSQKFKDKASLTVNESSSTAYMHLSALASEDSAVYYCARANYGLYYAMDRWGQGTSVTVSS
VL: DIFLTQSPANMSVSPGERVSFSCRASQNIGTNIHWYQQRTNGSPRLLIKYASESISGIPSRFSGSGSGTDFILSINTVESEDIAVYFCQQSNRWPFTFGSGTKLEVI

Columns and labels:
[1] = target: human ADAM17 D+C (482-648) (Homo sapiens, UniProt P78536); experiment: ELISA
human ADAM17 D+C (482-648), sequence (P78536 482-648): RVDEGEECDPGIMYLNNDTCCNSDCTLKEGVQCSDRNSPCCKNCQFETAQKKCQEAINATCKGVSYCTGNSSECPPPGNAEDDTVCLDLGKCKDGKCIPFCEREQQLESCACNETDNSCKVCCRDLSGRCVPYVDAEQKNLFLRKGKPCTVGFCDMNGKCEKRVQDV

[2] = target: human ADAM19 D+C construct (438-646) (Homo sapiens, UniProt Q9H013); experiment: ELISA
human ADAM19 D+C construct (438-646), sequence (Q9H013 438-646): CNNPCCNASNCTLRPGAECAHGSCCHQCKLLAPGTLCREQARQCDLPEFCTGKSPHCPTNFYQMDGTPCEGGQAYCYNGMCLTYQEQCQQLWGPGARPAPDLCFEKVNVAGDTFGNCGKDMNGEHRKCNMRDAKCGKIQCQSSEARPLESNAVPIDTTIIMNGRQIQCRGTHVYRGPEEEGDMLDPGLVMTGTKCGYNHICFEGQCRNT

[3] = target: full recombinant ADAM10 ECD (species not named for the experiment) (Bos taurus, assumed, UniProt Q10741); experiment: BLI
full recombinant ADAM10 ECD (species not named for the experiment), sequence (Q10741 20-672): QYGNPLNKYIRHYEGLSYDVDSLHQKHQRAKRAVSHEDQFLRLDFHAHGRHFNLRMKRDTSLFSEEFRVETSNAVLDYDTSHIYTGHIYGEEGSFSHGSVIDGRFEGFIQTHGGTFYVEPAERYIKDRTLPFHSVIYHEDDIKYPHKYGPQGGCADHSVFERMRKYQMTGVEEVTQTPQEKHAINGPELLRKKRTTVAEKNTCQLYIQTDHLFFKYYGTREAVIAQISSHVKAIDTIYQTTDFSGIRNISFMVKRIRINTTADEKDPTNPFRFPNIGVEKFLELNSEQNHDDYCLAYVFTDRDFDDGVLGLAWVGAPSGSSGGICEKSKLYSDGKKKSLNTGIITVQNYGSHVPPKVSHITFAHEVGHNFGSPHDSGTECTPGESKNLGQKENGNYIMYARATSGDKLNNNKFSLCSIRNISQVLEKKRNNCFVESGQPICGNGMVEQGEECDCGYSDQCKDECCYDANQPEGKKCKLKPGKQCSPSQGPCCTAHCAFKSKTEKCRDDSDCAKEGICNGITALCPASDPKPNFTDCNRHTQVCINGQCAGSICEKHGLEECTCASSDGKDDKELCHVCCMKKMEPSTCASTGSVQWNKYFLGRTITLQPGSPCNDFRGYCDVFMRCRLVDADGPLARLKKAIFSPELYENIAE

[4] = target: T1, ADAM10 D+C domains construct (species not named for the experiment) (Bos taurus, assumed); experiment: ELISA
T1 chain: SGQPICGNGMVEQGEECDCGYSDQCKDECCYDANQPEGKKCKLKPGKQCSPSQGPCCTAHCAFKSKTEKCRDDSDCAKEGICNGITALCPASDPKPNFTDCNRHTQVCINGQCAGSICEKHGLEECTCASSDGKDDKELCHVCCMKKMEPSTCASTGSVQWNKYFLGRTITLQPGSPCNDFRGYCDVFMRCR

Row | Binder | binding result [1] | binding result [2] | Kd [3] [nM] | binding result [4]
1 | B1 | no binding | no binding | ~200 | 
2 | B2 |  |  |  | binds

— PMC10499537 (Biomedicine & pharmacotherapy = Biomedecine & …, 2023)
